Among the data in article PMC4250934 are stoichiometry N values, retold here.

Common to all, as to assay: AUC
Assay [1] has as its target SODA_(BSn5), C-terminal SODA domain of SOD_(BSn5) (Bacillus subtilis BSn5).
The target in assay [2] is SODA_(NG2215), NTD-deleted form of SOD_(NG2215) (SODA functional domain) (Geobacillus thermodenitrificans NG80-2).
Assay [3] has as its target SOD_(BSn5), Fe/Mn superoxide dismutase from Bacillus subtilis BSn5 (Bacillus subtilis BSn5).
Assay [4] addresses SOD_(NG2215), Fe/Mn superoxide dismutase (cambialistic SOD) from Geobacillus thermodenitrificans NG80-2 (Geobacillus thermodenitrificans NG80-2).

With “SODA_(BSn5), C-terminal SODA domain of SOD_(BSn5) (domain or fragment)”, the stoichiometry N (as a rule, the number of molecules, sites or subunits per partner or assembly) in assay [1] stood at 2. Consider “SODA_(NG2215), NTD-deleted form of SOD_(NG2215) (SODA functional domain) (domain or fragment)”, for which the stoichiometry N in assay [2] was 4. In assay [3], “SOD_(BSn5), Fe/Mn superoxide dismutase from Bacillus subtilis BSn5 (enzyme)” came in with a stoichiometry N of 2.

Turning to “SOD_(NG2215), Fe/Mn superoxide dismutase (cambialistic SOD) from Geobacillus thermodenitrificans NG80-2 (enzyme)”, the stoichiometry N in assay [4] is 4.
